Where two headings read alike, the source gives them in different places.
B1: response regulator from Agrobacterium fabrum (AtRR) (natural protein, Agrobacterium fabrum strain C58)
chain: MPELRPILLVEDNPRDLELTLTALEKCQLANEVVVARDGTEALDYLNVTGSHHNRPGGDPAVVLLDLKLPKVDGLEVLQTVKGSDHLRHIPVVMLTSSREEQDLVKSYELGVNAFVVKPVEFNQFFKAIQDLGVFWALLNE
B2: bacteriophytochrome from Deinococcus radiodurans (DrBphP) (natural protein, Deinococcus radiodurans strain R1, UniProt Q9RZA4 1-755, looked up)
chain: MSRDPLPFFPPLYLGGPEITTENCEREPIHIPGSIQPHGALLTADGHSGEVLQMSLNAATFLGQEPTVLRGQTLAALLPEQWPALQAALPPGCPDALQYRATLDWPAAGHLSLTVHRVGELLILEFEPTEAWDSTGPHALRNAMFALESAPNLRALAEVATQTVRELTGFDRVMLYKFAPDATGEVIAEARREGLHAFLGHRFPASDIPAQARALYTRHLLRLTADTRAAAVPLDPVLNPQTNAPTPLGGAVLRATSPMHMQYLRNMGVGSSLSVSVVVGGQLWGLIACHHQTPYVLPPDLRTTLEYLGRLLSLQVQVKEAADVAAFRQSLREHHARVALAAAHSLSPHDTLSDPALDLLGLMRAGGLILRFEGRWQTLGEVPPAPAVDALLAWLETQPGALVQTDALGQLWPAGADLAPSAAGLLAISVGEGWSECLVWLRPELRLEVAWGGATPDQAKDDLGPRHSFDTYLEEKRGYAEPWHPGEIEEAQDLRDTLTGALGERLSVIRDLNRALTQSNAEWRQYGFVISHHMQEPVRLISQFAELLTRQPRAQDGSPDSPQTERITGFLLRETSRLRSLTQDLHTYTALLSAPPPVRRPTPLGRVVDDVLQDLEPRIADTGASIEVAPELPVIAADAGLLRDLLLHLIGNALTFGGPEPRIAVRTERQGAGWSIAVSDQGAGIAPEYQERIFLLFQRLGSLDEALGNGLGLPLCRKIAELHGGTLTVESAPGEGSTFRCWLPDAGPLPGAADA
modifications: biliverdin IXα chromophore, thioether linkage to the conserved cysteine within the PAS domain

How the values were obtained:
[1] = target: the molecule itself; test: SEC
[2] = target: the molecule itself; test: SEC; remark: listed apart in the source

Protein | stoichiometry N [1] | stoichiometry N [2]
B1 | 2 | –
B2 | – | 2

— article doi:10.1101/2020.06.26.173310 (bioRxiv, 2020)
